Experimental data from patent EP4424703A1.

Legend:
[1] = molecular target: human transferrin receptor-1 on human TfR-positive cells (SK-OV-3, hCMEC/D3) (human) (UniProt P02786); assay: flow cytometry on SK-OV-3 cells, 200 nM Ztaq-ABD (negative control) co-incubated with 25 µg/mL Tf-488
[2] = molecular target: human transferrin receptor-1 on human TfR-positive cells (SK-OV-3, hCMEC/D3) (human) (UniProt P02786); assay: flow cytometry on SK-OV-3 cells, 600 nM Ztaq-ABD (negative control) co-incubated with 25 µg/mL Tf-488

Sequence of UniProt P02786 (P02786 whole entry): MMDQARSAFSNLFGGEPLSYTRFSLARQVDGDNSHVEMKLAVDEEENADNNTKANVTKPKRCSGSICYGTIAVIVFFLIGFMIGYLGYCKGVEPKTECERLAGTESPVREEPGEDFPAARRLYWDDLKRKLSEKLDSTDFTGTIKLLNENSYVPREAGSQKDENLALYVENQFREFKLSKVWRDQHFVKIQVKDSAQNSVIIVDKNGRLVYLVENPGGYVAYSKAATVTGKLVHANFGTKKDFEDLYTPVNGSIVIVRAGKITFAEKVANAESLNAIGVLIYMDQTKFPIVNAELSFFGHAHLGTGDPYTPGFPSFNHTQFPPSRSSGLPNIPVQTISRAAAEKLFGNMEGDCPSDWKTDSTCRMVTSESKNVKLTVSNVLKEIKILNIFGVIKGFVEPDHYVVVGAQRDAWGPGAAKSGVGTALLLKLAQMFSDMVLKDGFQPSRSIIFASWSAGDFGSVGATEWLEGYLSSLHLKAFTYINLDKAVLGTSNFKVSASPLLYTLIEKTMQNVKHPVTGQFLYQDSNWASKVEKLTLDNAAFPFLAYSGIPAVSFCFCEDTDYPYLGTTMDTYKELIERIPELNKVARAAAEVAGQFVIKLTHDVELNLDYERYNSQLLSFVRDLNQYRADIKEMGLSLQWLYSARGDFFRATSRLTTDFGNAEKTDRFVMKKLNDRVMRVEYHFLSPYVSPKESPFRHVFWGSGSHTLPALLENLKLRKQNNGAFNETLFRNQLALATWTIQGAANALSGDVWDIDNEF

MFI 640/660 nm [1] | MFI 640/660 nm [2] | Substance
1.62 MFI |  | Ztaq-ABD
 | 3.69 MFI | Ztaq-ABD (designed binder)
